The supplement of paper PMC9112550, “Optimization of the antimicrobial peptide Bac7 by deep mutational scanning” (BMC Biology, 2022)

Tested on: Escherichia coli TOP10
Assay: shrunken log2 fold change of peptide-encoding DNA abundance (4.5 h post-induction vs induction); higher = less antimicrobial activity (less host growth inhibition)
Conditions: time post-induction: 4.5 h; library: site-saturation at positions 5, 18, 19, 20
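Note: peptides expressed intracellularly from a pBAD plasmid library in pooled LB shake-flask culture, induced with 0.3% L-arabinose, DNA abundance read by NGS, three biological replicates, DESeq2 with apeglm shrinkage.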

Row | Sequence | shrunken log2 fold change
1 | RRIRFRPPRLPRPRPRPNAIPRP | -0.322
2 | RRIRFRPPRLPRPRPRPNDMPRP | -0.388
3 | RRIRFRPPRLPRPRPRPNEAPRP | -0.0305
4 | RRIRFRPPRLPRPRPRPNESPRP | 0.0698
5 | RRIRFRPPRLPRPRPRPNFPPRP | -0.254
6 | RRIRFRPPRLPRPRPRPNFRPRP | 0.157
7 | RRIRFRPPRLPRPRPRPNGDPRP | -0.131
8 | RRIRFRPPRLPRPRPRPNHNPRP | -0.711
9 | RRIRFRPPRLPRPRPRPNKFPRP | -0.783
10 | RRIRFRPPRLPRPRPRPNKQPRP | 0.0839
11 | RRIRFRPPRLPRPRPRPNMRPRP | 0.386
12 | RRIRFRPPRLPRPRPRPNMWPRP | -0.485
13 | RRIRFRPPRLPRPRPRPNNIPRP | -1.04
14 | RRIRFRPPRLPRPRPRPNNQPRP | -0.559
15 | RRIRFRPPRLPRPRPRPNNRPRP | -0.139
16 | RRIRFRPPRLPRPRPRPNPTPRP | 0.0233
17 | RRIRFRPPRLPRPRPRPNSLPRP | -0.189
18 | RRIRFRPPRLPRPRPRPNTNPRP | -0.622
19 | RRIRFRPPRLPRPRPRPNTTPRP | -0.0257
20 | RRIRFRPPRLPRPRPRPNVTPRP | -0.724
21 | RRIRFRPPRLPRPRPRPNWMPRP | -0.0436
22 | RRIRFRPPRLPRPRPRPNWRPRP | -0.0764
23 | RRIRFRPPRLPRPRPRPPAMPRP | 0.775
24 | RRIRFRPPRLPRPRPRPPAVPRP | 0.713
25 | RRIRFRPPRLPRPRPRPPCEPRP | 0.409

Row | Sequence | shrunken log2 fold change
26 | RRIRFRPPRLPRPRPRPPFQPRP | 0.258
27 | RRIRFRPPRLPRPRPRPPFWPRP | 0.538
28 | RRIRFRPPRLPRPRPRPPGYPRP | 0.0848
29 | RRIRFRPPRLPRPRPRPPHEPRP | -0.064
30 | RRIRFRPPRLPRPRPRPPHRPRP | 0.324
31 | RRIRFRPPRLPRPRPRPPIKPRP | 0.0125
32 | RRIRFRPPRLPRPRPRPPLMPRP | 0.154
33 | RRIRFRPPRLPRPRPRPPLQPRP | 0.353
34 | RRIRFRPPRLPRPRPRPPPIPRP | 1.02
35 | RRIRFRPPRLPRPRPRPPQPPRP | 0.795
36 | RRIRFRPPRLPRPRPRPPRHPRP | 0.411
37 | RRIRFRPPRLPRPRPRPPSGPRP | 0.422
38 | RRIRFRPPRLPRPRPRPPSPPRP | 0.688
39 | RRIRFRPPRLPRPRPRPPTDPRP | 0.414
40 | RRIRFRPPRLPRPRPRPPTPPRP | 0.908
41 | RRIRFRPPRLPRPRPRPPVLPRP | 0.006
42 | RRIRFRPPRLPRPRPRPPVMPRP | 0.0132
43 | RRIRFRPPRLPRPRPRPPVTPRP | -0.132
44 | RRIRFRPPRLPRPRPRPPWAPRP | 0.267
45 | RRIRFRPPRLPRPRPRPPWVPRP | 0.401
46 | RRIRFRPPRLPRPRPRPPYDPRP | -0.49
47 | RRIRFRPPRLPRPRPRPQAQPRP | 0.023
48 | RRIRFRPPRLPRPRPRPQAWPRP | 0.15
49 | RRIRFRPPRLPRPRPRPQCEPRP | 0.0491
50 | RRIRFRPPRLPRPRPRPQDNPRP | -0.186

Row | Sequence | shrunken log2 fold change
51 | RRIRFRPPRLPRPRPRPQFKPRP | -0.217
52 | RRIRFRPPRLPRPRPRPQFPPRP | -0.16
53 | RRIRFRPPRLPRPRPRPQHDPRP | -0.394
54 | RRIRFRPPRLPRPRPRPQHKPRP | -0.51
55 | RRIRFRPPRLPRPRPRPQHSPRP | -0.347
56 | RRIRFRPPRLPRPRPRPQHTPRP | -0.164
57 | RRIRFRPPRLPRPRPRPQIVPRP | 0.0871
58 | RRIRFRPPRLPRPRPRPQLEPRP | 0.118
59 | RRIRFRPPRLPRPRPRPQLPPRP | -0.0654
60 | RRIRFRPPRLPRPRPRPQNAPRP | 0.0534
61 | RRIRFRPPRLPRPRPRPQPSPRP | 0.279
62 | RRIRFRPPRLPRPRPRPQQDPRP | -0.24
63 | RRIRFRPPRLPRPRPRPQQWPRP | -0.208
64 | RRIRFRPPRLPRPRPRPQSMPRP | -0.434
65 | RRIRFRPPRLPRPRPRPQTNPRP | -0.619
66 | RRIRFRPPRLPRPRPRPQVGPRP | -0.0394
67 | RRIRFRPPRLPRPRPRPQVMPRP | -0.265
68 | RRIRFRPPRLPRPRPRPQVQPRP | -0.0485
69 | RRIRFRPPRLPRPRPRPQVRPRP | 0.305
70 | RRIRFRPPRLPRPRPRPQWAPRP | 0.136
71 | RRIRFRPPRLPRPRPRPQWCPRP | -0.0514
72 | RRIRFRPPRLPRPRPRPQWHPRP | -0.461
73 | RRIRFRPPRLPRPRPRPQWRPRP | 1.49
74 | RRIRFRPPRLPRPRPRPQWWPRP | -0.0312
75 | RRIRFRPPRLPRPRPRPQYSPRP | -0.581
